Data published in PMC11933058 (Frontiers in Immunology, 2025).

Legend:
[1] = target: T1, recombinant human TIM3 extracellular domain, 6-His C-ter-tagged (ACROBiosystems) (Homo sapiens, UniProt Q8TDQ0); assay: AlphaScreen or HTRF; dose-response of antibodies (human IgG1 in concentrated, dosed HEK293 supernatant) on recombinant TIM3 or TIGIT at 0.6 ng/µl; 1 h incubation, then donor and acceptor sensors 1 h; EC50 from a fit in GraphPad Prism; conditions: one partner purified
T1 construct: TIM3 (HAVCR2), human, recombinant extracellular domain; the methods describe the His-tagged protein; For BLI only 'recombinant TIM3' is said; also called HAVCR-2; HAVCR2; source: bought: ACROBiosystems; not shown: His6, C-terminal, kept

[2] = target: T1, recombinant human TIM3 extracellular …; assay: BLI; Octet RED96, antibody loaded from supernatant on anti-human Fc (AHC) biosensors, recombinant TIM3 or TIGIT in solution; PBS, 30°C, 1000 rpm; association 300 sec, dissociation 300 sec; global 1:1 fit; conditions: one partner purified
[3] = target: T2, TIT-H52H5 Human TIGIT Protein, His Tag, active dimer (ACROBiosystems) (Homo sapiens, UniProt Q495A1); assay: AlphaScreen or HTRF; dose-response of antibodies (human IgG1 in concentrated, dosed HEK293 supernatant) on recombinant TIM3 or TIGIT at 0.6 ng/µl; 1 h incubation, then donor and acceptor sensors 1 h; EC50 from a fit in GraphPad Prism; conditions: one partner purified
T2 construct: TIGIT, human, recombinant extracellular domain; the methods describe the His-tagged protein; For BLI only 'recombinant TIGIT' is said; also called VSIG9; T-cell immunoreceptor with Ig and ITIM domains; source: bought: ACROBiosystems

[4] = target: T2, TIT-H52H5 Human TIGIT Protein, His Tag, …; assay: BLI; Octet RED96, antibody loaded from supernatant on anti-human Fc (AHC) biosensors, recombinant TIM3 or TIGIT in solution; PBS, 30°C, 1000 rpm; association 300 sec, dissociation 300 sec; global 1:1 fit; conditions: one partner purified
[5] = target: T3, SIRPα with C-terminal Flag tag, overexpressed in HEK293 cells (UniProt P78324); assay: flow cytometry on cells; HEK293 transiently transfected with the Flag-tagged target, fixed and permeabilized, incubated with raw antibody supernatants 1 h at room temperature; APC anti-human IgG and PE anti-Flag; % APC+PE+ cells; conditions: partners not purified
T3 construct: SIRPα, transmembrane target, synthetic gene; source: HEK293, transiently transfected (pcDNA3.1), cells fixed and permeabilized; not shown: Flag, C-terminal, kept

T2 sequence (Q495A1 22-141): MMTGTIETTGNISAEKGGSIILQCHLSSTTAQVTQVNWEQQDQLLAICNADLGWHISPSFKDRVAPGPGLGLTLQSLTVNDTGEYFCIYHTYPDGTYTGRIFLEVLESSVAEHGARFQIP

EC50 [1] [pM] | Kd [2] [pM] | koff [2] [s⁻¹] | kon [2] [M⁻¹ s⁻¹] | EC50 [3] [pM] | Kd [4] [pM] | koff [4] [s⁻¹] | kon [4] [M⁻¹ s⁻¹] | binding result [5] | Binder
193 | 200 | 3.06e-05 | 153000 | – | – | – | – | – | M6903, human IgG1 format (antibody, V domains shown, VH of M6903; constant domains of unmodified human IgG1 heavy chain, from the plasmid pTrioz-hIgG1 (InvivoGen); VL of M6903; constant domain of the light chain as encoded by pTrioz-hIgG1; IgG1; VH and VL by gene synthesis; also called 6TXZ; source: HEK293, transiently transfected, supernatant (concentrated); also a large batch produced and purified by SinoBiological) VH: not shown VL: QSALTQPRSVSGSPGQSVTISCTGTSSDVGGYNYVSWYQQHPGKAPKLMIYDVSKRPSGVPDRFSGSKSGNTASLTISGLQAEDEADYYCSSYADSVVFGGGTKVTVL
– | – | – | – | 489 | 189 | 7.43e-05 | 393000 | – | MG1131, human IgG1 format (antibody, V domains shown, VH of MG1131; constant domains of unmodified human IgG1 heavy chain, from the plasmid pTrioz-hIgG1 (InvivoGen); VL of MG1131; constant domain of the light chain as encoded by pTrioz-hIgG1; IgG1; VH and VL by gene synthesis; also called 7VYT; source: HEK293, transiently transfected, supernatant (concentrated)) VH: EVQLVQSGAEVKKPGASVKVSCKASGYTFTSYYMHWVRQAPGQGLEWMGIINPSGGSTSYAQKFQGRVTMTRDTSTSTVYMELSSLRSEDTAVYYCASRSGSGWFGALDYWGQGTLVTVSS VL: not shown
– | – | – | – | 3140 | 681 | 0.000279 | 410000 | – | Tiragolumab, human IgG1 format (antibody, V domains shown, VH of Tiragolumab; constant domains of unmodified human IgG1 heavy chain, from the plasmid pTrioz-hIgG1 (InvivoGen); VL of Tiragolumab; constant domain of the light chain as encoded by pTrioz-hIgG1; IgG1; VH and VL by gene synthesis; also called 8JEO; source: HEK293, transiently transfected, supernatant (concentrated)) VH: EVQLQQSGPGLVKPSQTLSLTCAISGDSVSSNSAAWNWIRQSPSRGLEWLGKTYYRFKWYSDYAVSVKGRITINPDTSKNQFSLQLNSVTPEDTAVFYCTRESTTYDLLAGPFDYWGQGTLVTVSS VL: not shown
150 | 1010 | 0.000219 | 216000 | – | – | – | – | – | Tim3.18, human IgG1 format (antibody, V domains shown, VH of Tim3.18; constant domains of unmodified human IgG1 heavy chain, from the plasmid pTrioz-hIgG1 (InvivoGen); VL of Tim3.18; constant domain of the light chain as encoded by pTrioz-hIgG1; IgG1; VH and VL by gene synthesis; also called 7KQL; source: HEK293, transiently transfected, supernatant (concentrated); also a large batch produced and purified by SinoBiological) VH: QLQLQESGPGLVKPSETLSLTCTVSGGSISSRSYYWGWIRQPPGKGLEWIGSIYYSGFTYYQPSLKSRVTISVDTSKNQFSLKLSSVTAADTAVYYCATGGPYGDYAHWFEPWGQGTLVTVSS VL: not shown
– | – | – | – | – | – | – | – | binds | CC-95251, human IgG1 format (antibody, V domains shown, constant domains of unmodified human IgG1 heavy chain, from the plasmid pTrioz-hIgG1 (InvivoGen); constant domain of the light chain as encoded by pTrioz-hIgG1; VH and VL by gene synthesis; also called 7ST5; source: HEK293, transiently transfected, supernatant) VH: QVQLVQSGAEVKKPGASVKVSCKASGYTFRGYGISWVRQAPGQGLEWMGWISAYGGETNYAQKLQGRVTMTTDTSTSTAYMELRSLRSDDTAVYYCAREAGSSWYDFDLWGRGTLVTVSS VL: DIQMTQSPSSVSASVGDRVTITCRASQGISSWLAWYQQKPGKAPKLLIYAASNLQSGVPSRFSGSGSGTDFTLTISSLQPEDFATYYCQQGASFPITFGGGTKVEIK
